From publication PMC9197780 come the findings set out here.

Holding throughout (experiment): SPR
For assay [1], the target named is ADI-56046 (human).
The target of assay [2] is P2B-2F6 (human).
For assay [3], the target named is C105 (human).
Assay [4] addresses P17 (human).
The target of assay [5] is B38 (human).
Assay [6] concerns the target CB6 (human).

As to “SARS-CoV-2 Omicron BA.1 RBD protein with His-tag, spike residues 319-541 (from UniProt P0DTC2 319-541) (domain or fragment)”, the Kd (commonly a measure of binding affinity in units of concentration) in assay [1] was 2300 nM.
The same measure, in the same setting: the figure for “SARS-CoV-2 Omicron BA.1.1 RBD protein with His-tag, spike residues 319-541 (from UniProt P0DTC2 319-541) (domain or fragment)” is 1500 nM.
“SARS-CoV-2 Omicron BA.2 RBD protein with His-tag, spike residues 319-541 (from UniProt P0DTC2 319-541) (domain or fragment)”: the Kd in assay [2] amounted to 5100 nM.
Regarding “SARS-CoV-2 Omicron BA.3 RBD protein with His-tag, spike residues 319-541 (from UniProt P0DTC2 319-541) (domain or fragment)”, the Kd was greater than 500 nM in assay [3]; 3500 nM in assay [4]; greater than 500 nM in assay [5]; greater than 500 nM in assay [6]; 18000 nM in assay [1].
